These are literature values, as cited in paper PMC3267162.

Like-named read-outs stand apart in the source and are kept apart here.

For data set [1], the target named is PTPzeta (Homo sapiens) (UniProt P23471).
Data set [2] addresses LRP (Homo sapiens) (UniProt Q07954).
Data set [3] addresses PTPzeta (Homo sapiens) (UniProt P23471). This is another data set of the same source.

UniProt P23471, sequence (P23471 25-1636): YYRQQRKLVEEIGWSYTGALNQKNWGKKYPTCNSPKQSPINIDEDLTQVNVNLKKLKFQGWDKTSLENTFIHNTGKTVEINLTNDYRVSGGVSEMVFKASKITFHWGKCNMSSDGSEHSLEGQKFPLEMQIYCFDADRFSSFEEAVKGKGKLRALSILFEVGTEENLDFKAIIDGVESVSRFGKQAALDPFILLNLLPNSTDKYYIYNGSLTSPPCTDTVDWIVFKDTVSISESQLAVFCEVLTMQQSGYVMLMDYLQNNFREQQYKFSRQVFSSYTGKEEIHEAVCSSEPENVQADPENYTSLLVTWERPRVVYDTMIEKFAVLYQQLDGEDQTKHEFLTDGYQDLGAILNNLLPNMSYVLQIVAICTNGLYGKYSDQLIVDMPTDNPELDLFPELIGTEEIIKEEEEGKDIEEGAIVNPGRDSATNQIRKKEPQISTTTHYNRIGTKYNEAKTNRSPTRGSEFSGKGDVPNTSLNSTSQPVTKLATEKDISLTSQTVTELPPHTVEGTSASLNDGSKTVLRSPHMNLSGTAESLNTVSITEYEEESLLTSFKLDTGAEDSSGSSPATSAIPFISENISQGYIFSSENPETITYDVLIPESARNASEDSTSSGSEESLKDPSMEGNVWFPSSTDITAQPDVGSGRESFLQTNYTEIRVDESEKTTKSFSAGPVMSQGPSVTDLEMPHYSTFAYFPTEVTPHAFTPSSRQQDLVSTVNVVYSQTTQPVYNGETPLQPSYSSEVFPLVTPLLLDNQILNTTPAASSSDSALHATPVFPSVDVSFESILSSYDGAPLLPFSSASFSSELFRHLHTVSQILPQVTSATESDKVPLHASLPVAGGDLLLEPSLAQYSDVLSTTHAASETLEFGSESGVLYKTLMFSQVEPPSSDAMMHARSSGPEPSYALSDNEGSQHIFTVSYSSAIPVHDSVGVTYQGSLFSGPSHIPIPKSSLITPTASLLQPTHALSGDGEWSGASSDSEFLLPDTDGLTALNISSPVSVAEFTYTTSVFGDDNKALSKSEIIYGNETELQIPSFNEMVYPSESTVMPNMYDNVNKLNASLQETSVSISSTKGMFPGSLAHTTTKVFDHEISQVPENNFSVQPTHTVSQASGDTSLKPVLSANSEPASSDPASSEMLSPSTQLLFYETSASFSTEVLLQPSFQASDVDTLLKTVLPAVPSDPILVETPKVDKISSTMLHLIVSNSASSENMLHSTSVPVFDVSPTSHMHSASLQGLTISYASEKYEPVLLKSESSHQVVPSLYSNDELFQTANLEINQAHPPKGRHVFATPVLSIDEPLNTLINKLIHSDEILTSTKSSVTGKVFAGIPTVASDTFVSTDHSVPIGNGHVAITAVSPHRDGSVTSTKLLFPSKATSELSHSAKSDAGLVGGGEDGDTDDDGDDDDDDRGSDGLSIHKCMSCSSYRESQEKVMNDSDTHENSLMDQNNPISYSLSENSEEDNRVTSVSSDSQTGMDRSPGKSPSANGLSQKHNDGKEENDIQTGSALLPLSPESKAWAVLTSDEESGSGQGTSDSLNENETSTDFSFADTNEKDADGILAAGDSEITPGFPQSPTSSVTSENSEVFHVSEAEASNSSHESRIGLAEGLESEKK

Regarding Midkine (from UniProt P21741), the equilibrium dissociation constant (Kd) – broadly, a measure of binding affinity in units of concentration – in data set [1] was 8.8 nM; in data set [2], 3.5 nM; in data set [3], 0.58 nM.
